Several values for one entry are separate records, joined by “and”; a condition that tells them apart may be missing. Equal values may be shown once.
Experiments:
牛血清白蛋白(BSA) (bovine) [1] = biological target: 牛血清白蛋白(BSA) (bovine) (UniProt P02769); test: ELISA, BSA coated at 1 ug/ml, biotin-labelled antibody at dilution 1K, HRP-avidin
牛血清白蛋白(BSA) (bovine) [2] = biological target: 牛血清白蛋白(BSA) (bovine) (UniProt P02769); test: ELISA, BSA coated at 1 ug/ml, biotin-labelled antibody at dilution 1024K, HRP-avidin
牛血清白蛋白(BSA) (bovine) [3] = biological target: 牛血清白蛋白(BSA) (bovine) (UniProt P02769); test: ELISA, BSA coated at 1 ug/ml, biotin-labelled antibody at dilution 4K, HRP-avidin
HEK293细胞裂解液 [4] = test: sandwich ELISA, coat B2, detection biotin-B6, lysate 500 ug/ml
Vero细胞裂解液 [5] = test: as above
CHO细胞裂解液 [6] = test: as above
牛血清白蛋白(BSA) (bovine) [7] = biological target: 牛血清白蛋白(BSA) (bovine) (UniProt P02769); test: indirect ELISA, BSA coated at 1 ug/ml, purified antibody at dilution 1K, HRP goat anti-mouse IgG
牛血清白蛋白(BSA) (bovine) [8] = biological target: 牛血清白蛋白(BSA) (bovine) (UniProt P02769); test: indirect ELISA, BSA coated at 1 ug/ml, purified antibody at dilution 512K, HRP goat anti-mouse IgG
牛血清白蛋白(BSA) (bovine) [9] = biological target: 牛血清白蛋白(BSA) (bovine) (UniProt P02769); test: ELISA, BSA coated at 1 ug/ml, biotin-labelled antibody at dilution 32K, HRP-avidin
牛血清白蛋白(BSA) (bovine) [10] = biological target: 牛血清白蛋白(BSA) (bovine) (UniProt P02769); test: sandwich ELISA, coat B2 2 ug/ml, BSA 24 ng/ml, detection biotin-B6 0.2 ug/ml
牛血清白蛋白(BSA) (bovine) [11] = biological target: 牛血清白蛋白(BSA) (bovine) (UniProt P02769); test: sandwich ELISA, coat B2 2 ug/ml, BSA 24 ng/ml, detection biotin-B6 0.2 ug/ml, mean of A and B
HEK293细胞裂解液 [12] = test: sandwich ELISA, coat B2, detection biotin-B6, lysate 125 ug/ml
Vero细胞裂解液 [13] = test: as above
CHO细胞裂解液 [14] = test: as above
牛血清白蛋白(BSA) (bovine) [15] = biological target: 牛血清白蛋白(BSA) (bovine) (UniProt P02769); test: indirect ELISA, BSA coated at 1 ug/ml, purified antibody at dilution 16K, HRP goat anti-mouse IgG
牛血清白蛋白(BSA) (bovine) [16] = biological target: 牛血清白蛋白(BSA) (bovine) (UniProt P02769); test: indirect ELISA, BSA coated at 1 ug/ml, purified antibody at dilution 1024K, HRP goat anti-mouse IgG
牛血清白蛋白(BSA) (bovine) [17] = biological target: 牛血清白蛋白(BSA) (bovine) (UniProt P02769); test: sandwich ELISA, coat B2 2 ug/ml, BSA 1 ng/ml, detection biotin-B5 0.2 ug/ml
牛血清白蛋白(BSA) (bovine) [18] = biological target: 牛血清白蛋白(BSA) (bovine) (UniProt P02769); test: indirect ELISA, BSA coated at 1 ug/ml, purified antibody at dilution 8K, HRP goat anti-mouse IgG
牛血清白蛋白(BSA) (bovine) [19] = biological target: 牛血清白蛋白(BSA) (bovine) (UniProt P02769); test: indirect ELISA, BSA coated at 1 ug/ml, purified antibody at dilution 128K, HRP goat anti-mouse IgG
牛血清白蛋白(BSA) (bovine) [20] = biological target: 牛血清白蛋白(BSA) (bovine) (UniProt P02769); test: sandwich ELISA, coat B2 2 ug/ml, BSA 3 ng/ml, detection biotin-B6 0.2 ug/ml, mean of A and B
牛血清白蛋白(BSA) (bovine) [21] = biological target: 牛血清白蛋白(BSA) (bovine) (UniProt P02769); test: ELISA, BSA coated at 1 ug/ml, biotin-labelled antibody at dilution 16K, HRP-avidin
牛血清白蛋白(BSA) (bovine) [22] = biological target: 牛血清白蛋白(BSA) (bovine) (UniProt P02769); test: ELISA, BSA coated at 1 ug/ml, biotin-labelled antibody at dilution 64K, HRP-avidin
牛血清白蛋白(BSA) (bovine) [23] = biological target: 牛血清白蛋白(BSA) (bovine) (UniProt P02769); test: ELISA, BSA coated at 1 ug/ml, biotin-labelled antibody at dilution 128K, HRP-avidin
牛血清白蛋白(BSA) (bovine) [24] = biological target: 牛血清白蛋白(BSA) (bovine) (UniProt P02769); test: sandwich ELISA, coat B2 2 ug/ml, BSA 6 ng/ml, detection biotin-B6 0.2 ug/ml, mean of A and B
HEK293细胞裂解液 [25] = test: sandwich ELISA, coat B2, detection biotin-B6, lysate 15.63 ug/ml
Vero细胞裂解液 [26] = test: as above
CHO细胞裂解液 [27] = test: as above
牛血清白蛋白(BSA) (bovine) [28] = biological target: 牛血清白蛋白(BSA) (bovine) (UniProt P02769); test: indirect ELISA, BSA coated at 1 ug/ml, purified antibody at dilution 32K, HRP goat anti-mouse IgG
牛血清白蛋白(BSA) (bovine) [29] = biological target: 牛血清白蛋白(BSA) (bovine) (UniProt P02769); test: indirect ELISA, BSA coated at 1 ug/ml, purified antibody at dilution 256K, HRP goat anti-mouse IgG
牛血清白蛋白(BSA) (bovine) [30] = biological target: 牛血清白蛋白(BSA) (bovine) (UniProt P02769); test: sandwich ELISA, coat B2 2 ug/ml, BSA 3 ng/ml, detection biotin-B6 0.2 ug/ml

Chain of UniProt P02769 (P02769 25-607): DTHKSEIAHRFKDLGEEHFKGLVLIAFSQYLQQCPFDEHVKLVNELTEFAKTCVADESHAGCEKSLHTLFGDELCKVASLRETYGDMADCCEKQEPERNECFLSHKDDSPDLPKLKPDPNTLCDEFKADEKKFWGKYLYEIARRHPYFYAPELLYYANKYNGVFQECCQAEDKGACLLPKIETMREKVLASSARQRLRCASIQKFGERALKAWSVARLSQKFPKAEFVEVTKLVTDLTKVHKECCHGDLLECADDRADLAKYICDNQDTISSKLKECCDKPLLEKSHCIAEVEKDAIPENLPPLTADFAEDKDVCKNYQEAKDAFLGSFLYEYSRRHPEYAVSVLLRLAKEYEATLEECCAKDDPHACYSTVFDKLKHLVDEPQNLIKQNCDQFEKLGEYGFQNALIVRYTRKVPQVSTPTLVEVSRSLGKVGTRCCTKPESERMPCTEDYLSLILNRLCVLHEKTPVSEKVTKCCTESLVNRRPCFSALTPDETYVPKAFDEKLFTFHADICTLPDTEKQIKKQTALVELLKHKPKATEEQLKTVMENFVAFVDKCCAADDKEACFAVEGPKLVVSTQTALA

OD450 (牛血清白蛋白(BSA) (bovine) [1]): 2.3
OD450 (牛血清白蛋白(BSA) (bovine) [2]): 0.175
OD450 (牛血清白蛋白(BSA) (bovine) [3]): 2.02
OD450 (HEK293细胞裂解液 [4]): 0.139
OD450 (Vero细胞裂解液 [5]): 0.134
OD450 (CHO细胞裂解液 [6]): 0.135
OD450 (牛血清白蛋白(BSA) (bovine) [7]): 2.13
OD450 (牛血清白蛋白(BSA) (bovine) [8]): 0.137
OD450 (牛血清白蛋白(BSA) (bovine) [9]): 1.22
OD450 (牛血清白蛋白(BSA) (bovine) [10]): 1.51 and 1.5
OD450 (平均值) (牛血清白蛋白(BSA) (bovine) [11]): 1.5
OD450 (HEK293细胞裂解液 [12]): 0.14
OD450 (Vero细胞裂解液 [13]): 0.132
OD450 (CHO细胞裂解液 [14]): 0.14
OD450 (牛血清白蛋白(BSA) (bovine) [15]): 0.537
OD450 (牛血清白蛋白(BSA) (bovine) [16]): 0.144
OD450 (牛血清白蛋白(BSA) (bovine) [17]): 0.312 and 0.315
OD450 (牛血清白蛋白(BSA) (bovine) [18]): 0.728
OD450 (牛血清白蛋白(BSA) (bovine) [19]): 0.357
OD450 (平均值) (牛血清白蛋白(BSA) (bovine) [20]): 0.512
OD450 (牛血清白蛋白(BSA) (bovine) [21]): 1.6
OD450 (牛血清白蛋白(BSA) (bovine) [22]): 1.12
OD450 (牛血清白蛋白(BSA) (bovine) [23]): 0.821
OD450 (平均值) (牛血清白蛋白(BSA) (bovine) [24]): 0.688
OD450 (HEK293细胞裂解液 [25]): 0.136
OD450 (Vero细胞裂解液 [26]): 0.136
OD450 (CHO细胞裂解液 [27]): 0.141
OD450 (牛血清白蛋白(BSA) (bovine) [28]): 0.403
OD450 (牛血清白蛋白(BSA) (bovine) [29]): 0.208
OD450 (牛血清白蛋白(BSA) (bovine) [30]): 0.509 and 0.515
B1: BSA抗体B2 (antibody, V domains shown)
VH: VKLQESGGGLVKPGGSLKLSCAASGFTFSLYDESWVRQTPEKRLEWVAEIFLGVYRYVPESKVRFTMSRDNAKNTLYLQMSSLRSEDTAMYYCVRLCYWEPEVKKCWGQGTTVTVSS
VL: DIELTQSPLTLSVTIGQPASISCESDLSLKESLDWLLQRPGQSPKRLIYEDLNADCGVPDRFTGSGSGTDSTLKISRVEAEDLGVYYCEIKGTFRWSFGGGTKLEIK

— CN114591430A
